According to article PMC5586147 (Nature, 2017):

Target: human pro-TGF-β1 (C4S, R249A furin-site mutant, N107Q, N147Q), purified (human)
Assay: crystal structure

stoichiometry N: 1 αVβ6 head per pro-TGF-β1 dimer
B1: integrin αVβ6 head (three-domain fragment: αV β-propeller and thigh domains, β6 βI domain) (complex)
chain 1: FNLDVDSPAEYSGPEGSYFGFAVDFFVPSASSRMFLLVGAPKANTTQPGIVEGGQVLKCDWSSTRRCQPIEFDATGNRDYAKDDPLEFKSHQWFGASVRSKQDKILACAPLYHWRTEMKQEREPVGTCFLQDGTKTVEYAPCRSQDIDADGQGFCQGGFSIDFTKADRVLLGGPGSFYWQGQLISDQVAEIVSKYDPNVYSIKYNNQLATRTAQAIFDDSYLGYSVAVGDFNGDGIDDFVSGVPRAARTLGMVYIYDGKNMSSLYNFTGEQMAAYFGFSVAATDINGDDYADVFIGAPLFMDRGSDGKLQEVGQVSVSLQRASGDFQTTKLNGFEVFARFGSAIAPLGDLDQDGFNDIAIAAPYGGEDKKGIVYIFNGRSTGLNAVPSQILEGQWAARSGCPPSFGYSMKGATDIDKNGYPDLIVGAFGVDRAILYRARPVITVNAGLEVYPSILNQDNKTCSLPGTALKVSCFNVRFCLKADGKGVLPRKLNFQVELLLDKLKQKGAIRRALFLYSRSPSHSKNMTISRGGLMQCEELIAYLRDESEFRDKLTPITIFMEYRLDYRTAADTTGLQPILNQFTPANISRQAHILLD
chain 2: TEDYPVDLYYLMDLSASMDDDLNTIKELGSRLSKEMSKLTSNFRLGFGSFVEKPVSPFVKTTPEEIANPCSSIPYFCLPTFGFKHILPLTNDAERFNEIVKNQKISANIDTPEGGFDAIMQAAVCKEKIGWRNDSLHLLVFVSDADSHFGMDSKLAGIVCPNDGLCHLDSKNEYSMSTVLEYPTIGQLIDKLVQNNVLLIFAVTQEQVHLYENYAKLIPGATVGLLQKDSGNILQLIISAYEELRSEVELE
